Patent publication US20090298167A1 (Pfizer, published 2009)

What was measured:
[1] = target: human IL-21R expressed on cells (human, UniProt Q9HBE5 20-538); assay: cell-based or functional assay
[2] = target: murine IL-21R expressed on cells (murine, UniProt Q9JHX3 20-529); assay: cell-based or functional assay
Chain of murine IL-21R expressed on cells (Q9JHX3 20-529 limits assumed): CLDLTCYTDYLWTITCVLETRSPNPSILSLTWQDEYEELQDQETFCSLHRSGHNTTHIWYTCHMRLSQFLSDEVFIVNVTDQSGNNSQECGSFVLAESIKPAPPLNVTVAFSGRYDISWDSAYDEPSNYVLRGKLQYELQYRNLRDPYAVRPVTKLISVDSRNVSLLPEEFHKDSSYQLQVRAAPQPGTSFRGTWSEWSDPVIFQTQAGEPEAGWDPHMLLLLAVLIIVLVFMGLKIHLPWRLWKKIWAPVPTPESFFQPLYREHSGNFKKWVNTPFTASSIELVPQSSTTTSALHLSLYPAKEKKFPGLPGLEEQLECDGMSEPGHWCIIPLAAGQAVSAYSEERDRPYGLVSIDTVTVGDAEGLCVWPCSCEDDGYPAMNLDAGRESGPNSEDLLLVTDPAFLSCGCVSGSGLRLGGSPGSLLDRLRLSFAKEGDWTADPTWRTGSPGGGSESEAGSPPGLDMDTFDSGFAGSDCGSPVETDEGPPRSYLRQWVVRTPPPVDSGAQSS

Chain of human IL-21R expressed on cells (Q9HBE5 20-538 limits assumed): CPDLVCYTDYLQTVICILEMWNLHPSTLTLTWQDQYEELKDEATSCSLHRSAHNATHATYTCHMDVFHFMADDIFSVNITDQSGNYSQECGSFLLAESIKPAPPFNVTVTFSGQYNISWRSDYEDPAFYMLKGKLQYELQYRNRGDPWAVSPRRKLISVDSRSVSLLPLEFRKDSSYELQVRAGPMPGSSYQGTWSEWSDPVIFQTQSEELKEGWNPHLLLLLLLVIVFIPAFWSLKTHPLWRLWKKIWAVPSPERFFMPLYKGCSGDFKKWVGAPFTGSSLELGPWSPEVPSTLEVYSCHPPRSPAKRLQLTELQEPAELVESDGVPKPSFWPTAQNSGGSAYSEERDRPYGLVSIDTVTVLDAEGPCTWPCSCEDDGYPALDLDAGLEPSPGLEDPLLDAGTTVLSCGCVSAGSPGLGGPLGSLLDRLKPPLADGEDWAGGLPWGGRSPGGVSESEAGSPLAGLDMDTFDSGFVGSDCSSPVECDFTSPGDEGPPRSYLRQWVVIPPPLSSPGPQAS

| Binder | IC50 (nM) in Human IL-21R-BaF3 Neutralization Assay [1] | IC50 (nM) in Human IL-21R-TF1 Neutralization Assay [1] | IC50 (nM) in Murine IL-21R-BaF3 Neutralization Assay [2] |
| --- | --- | --- | --- |
| scFv H3 (scFv) scFv: QVQLQESGPGLVKTSETLSLTCAVSGYSISSGYYWGWIRQPPGKGLEWIGSISHTGNTYYNPPLKSRVTISVDTSKNQFSLKLSSVTAADTAVYYCARFMGFGRPEYWGKGTLVTVSSGGGGSGGGGSGGGGSALSSELTQDPPVSVALGQTVTLTCQGDSLRTYYASWYQQKSGQAPILLLYGKHKRPSGIPDRFSGSTSGDTASLTITGAQAEDEADYYCNSRDSSGNPHVLFGGGTQLTVL | 7.7 nM | 98.1 nM | 25.7 nM |
| scFv H4 (scFv) scFv: QVQLQESGPGLVKTSETLSLTCAVSGYSISSGYYWGWIRQPPGKGLEWIGSISHTGNTYYNPPLKSRVTISVDTSKNQFSLKLSSVTAADTAVYYCARWLGFGRPEYWGKGTLVTVSSGGGGSGGGGSGGGGSALSSELTQDPPVSVALGQTVTLTCQGDSLRTYYASWYQQKSGQAPILLLYGKHKRPSGIPDRFSGSTSGDTASLTITGAQAEDEADYYCNSRDSSGNPHVLFGGGTQLTVL | 3.8 nM | 9.3 nM | – |
| scFv L9 (scFv) scFv: QVQLQESGPGLVKTSETLSLTCAVSGYSISSGYYWGWIRQPPGKGLEWIGSISHTGNTYYNPPLKSRVTISVDTSKNQFSLKLSSVTAADTAVYYCARGGGISRPEYWGKGTLVTVSSGGGGSGGGGSGGGGSALSSELTQDPPVSVALGQTVTLTCQGDSLRTYYASWYQQKSGQAPILLLYGKHKRPSGIPDRFSGSTSGDTASLTITGAQAEDEADYYCVARSNKGNPHVLFGGGTQLTVL | 2.8 nM | 27.7 nM | 3.61 nM |
| scFv L11 (scFv) scFv: QVQLQESGPGLVKTSETLSLTCAVSGYSISSGYYWGWIRQPPGKGLEWIGSISHTGNTYYNPPLKSRVTISVDTSKNQFSLKLSSVTAADTAVYYCARGGGISRPEYWGKGTLVTVSSGGGGSGGGGSGGGGSALSSELTQDPPVSVALGQTVTLTCQGDSLRTYYASWYQQKSGQAPILLLYGKHKRPSGIPDRFSGSTSGDTASLTITGAQAEDEADYYCSSRSRHGNPHVLFGGGTQLTVL | 4.2 nM | 38.3 nM | 10 nM |
| scFv L12 (scFv) scFv: QVQLQESGPGLVKTSETLSLTCAVSGYSISSGYYWGWIRQPPGKGLEWIGSISHTGNTYYNPPLKSRVTISVDTSKNQFSLKLSSVTAADTAVYYCARGGGISRPEYWGKGTLVTVSSGGGGSGGGGSGGGGSALSSELTQDPPVSVALGQTVTLTCQGDSLRTYYASWYQQKSGQAPILLLYGKHKRPSGIPDRFSGSTSGDTASLTITGAQAEDEADYYCVARGTRGNPHVLFGGGTQLTVL | 2.6 nM | 54.9 nM | 87.8 nM |
| scFv L4 (scFv) scFv: QVQLQESGPGLVKTSETLSLTCAVSGYSISSGYYWGWIRQPPGKGLEWIGSISHTGNTYYNPPLKSRVTISVDTSKNQFSLKLSSVTAADTAVYYCARGGGISRPEYWGKGTLVTVSSGGGGSGGGGSGGGGSALSSELTQDPPVSVALGQTVTLTCQGDSLRTYYASWYQQKSGQAPILLLYGKHKRPSGIPDRFSGSTSGDTASLTITGAQAEDEADYYCSTRSSKGNPHVLFGGGTQLTVL | 2.1 nM | ~60 nM | – |
| scFv L1 (scFv) scFv: QVQLQESGPGLVKTSETLSLTCAVSGYSISSGYYWGWIRQPPGKGLEWIGSISHTGNTYYNPPLKSRVTISVDTSKNQFSLKLSSVTAADTAVYYCARGGGISRPEYWGKGTLVTVSSGGGGSGGGGSGGGGSALSSELTQDPPVSVALGQTVTLTCQGDSLRTYYASWYQQKSGQAPILLLYGKHKRPSGIPDRFSGSTSGDTASLTITGAQAEDEADYYCASRSVSGNPHVLFGGGTQLTVL | 3.7 nM | ~55 nM | 28.8 nM |
| scFv L3 (scFv) scFv: QVQLQESGPGLVKTSETLSLTCAVSGYSISSGYYWGWIRQPPGKGLEWIGSISHTGNTYYNPPLKSRVTISVDTSKNQFSLKLSSVTAADTAVYYCARGGGISRPEYWGKGTLVTVSSGGGGSGGGGSGGGGSALSSELTQDPPVSVALGQTVTLTCQGDSLRTYYASWYQQKSGQAPILLLYGKHKRPSGIPDRFSGSTSGDTASLTITGAQAEDEADYYCVSRAVVGNPHVLFGGGTQLTVL | 27.6 nM | ~7 nM | 13.8 nM |
| scFv L2 (scFv) scFv: QVQLQESGPGLVKTSETLSLTCAVSGYSISSGYYWGWIRQPPGKGLEWIGSISHTGNTYYNPPLKSRVTISVDTSKNQFSLKLSSVTAADTAVYYCARGGGISRPEYWGKGTLVTVSSGGGGSGGGGSGGGGSALSSELTQDPPVSVALGQTVTLTCQGDSLRTYYASWYQQKSGQAPILLLYGKHKRPSGIPDRFSGSTSGDTASLTITGAQAEDEADYYCVARSVVGNPHVLFGGGTQLTVL | 3.1 nM | 37.5 nM | 2.41 nM |
| scFv L13 (scFv) scFv: QVQLQESGPGLVKTSETLSLTCAVSGYSISSGYYWGWIRQPPGKGLEWIGSISHTGNTYYNPPLKSRVTISVDTSKNQFSLKLSSVTAADTAVYYCARGGGISRPEYWGKGTLVTVSSGGGGSGGGGSGGGGSALSSELTQDPPVSVALGQTVTLTCQGDSLRTYYASWYQQKSGQAPILLLYGKHKRPSGIPDRFSGSTSGDTASLTITGAQAEDEADYYCVTRNRYGNPHVLFGGGTQLTVL | 11 nM | 257 nM | 1.25 nM |
| scFv H5 (scFv) scFv: QVQLQESGPGLVKTSETLSLTCAVSGYSISSGYYWGWIRQPPGKGLEWIGSISHTGNTYYNPPLKSRVTISVDTSKNQFSLKLSSVTAADTAVYYCARFLGFGRPEYWGKGTLVTVSSGGGGSGGGGSGGGGSALSSELTQDPPVSVALGQTVTLTCQGDSLRTYYASWYQQKSGQAPILLLYGKHKRPSGIPDRFSGSTSGDTASLTITGAQAEDEADYYCNSRDSSGNPHVLFGGGTQLTVL | 7.9 nM | 178 nM | 53.7 nM |
| scFv L23 (scFv) scFv: QVQLQESGPGLVKTSETLSLTCAVSGYSISSGYYWGWIRQPPGKGLEWIGSISHTGNTYYNPPLKSRVTISVDTSKNQFSLKLSSVTAADTAVYYCARGGGISRPEYWGKGTLVTVSSGGGGSGGGGSGGGGSALSSELTQDPPVSVALGQTVTLTCQGDSLRTYYASWYQQKSGQAPILLLYGKHKRPSGIPDRFSGSTSGDTASLTITGAQAEDEADYYCSARSVRGNPHVLFGGGTQLTVL | 1.5 nM | 15.3 nM | – |
| scFv H6 (scFv) scFv: QVQLQESGPGLVKTSETLSLTCAVSGYSISSGYYWGWIRQPPGKGLEWIGSISHTGNTYYNPPLKSRVTISVDTSKNQFSLKLSSVTAADTAVYYCARFFGFGRPEYWGKGTLVTVSSGGGGSGGGGSGGGGSALSSELTQDPPVSVALGQTVTLTCQGDSLRTYYASWYQQKSGQAPILLLYGKHKRPSGIPDRFSGSTSGDTASLTITGAQAEDEADYYCNSRDSSGNPHVLFGGGTQLTVL | 13.8 nM | ~150 nM | – |
| scFv L8 (scFv) scFv: QVQLQESGPGLVKTSETLSLTCAVSGYSISSGYYWGWIRQPPGKGLEWIGSISHTGNTYYNPPLKSRVTISVDTSKNQFSLKLSSVTAADTAVYYCARGGGISRPEYWGKGTLVTVSSGGGGSGGGGSGGGGSALSSELTQDPPVSVALGQTVTLTCQGDSLRTYYASWYQQKSGQAPILLLYGKHKRPSGIPDRFSGSTSGDTASLTITGAQAEDEADYYCTTRSTQGNPHVLFGGGTQLTVL | 4.1 nM | 51.3 nM | 715 nM |
| scFv L6 (scFv) scFv: QVQLQESGPGLVKTSETLSLTCAVSGYSISSGYYWGWIRQPPGKGLEWIGSISHTGNTYYNPPLKSRVTISVDTSKNQFSLKLSSVTAADTAVYYCARGGGISRPEYWGKGTLVTVSSGGGGSGGGGSGGGGSALSSELTQDPPVSVALGQTVTLTCQGDSLRTYYASWYQQKSGQAPILLLYGKHKRPSGIPDRFSGSTSGDTASLTITGAQAEDEADYYCMSRSIWGNPHVLFGGGTQLTVL | 5.9 nM | ~150 nM | 0.29 nM |
| scFv L5 (scFv) scFv: QVQLQESGPGLVKTSETLSLTCAVSGYSISSGYYWGWIRQPPGKGLEWIGSISHTGNTYYNPPLKSRVTISVDTSKNQFSLKLSSVTAADTAVYYCARGGGISRPEYWGKGTLVTVSSGGGGSGGGGSGGGGSALSSELTQDPPVSVALGQTVTLTCQGDSLRTYYASWYQQKSGQAPILLLYGKHKRPSGIPDRFSGSTSGDTASLTITGAQAEDEADYYCASRSSKGNPHVLFGGGTQLTVL | 2.1 nM | ~20 nM | 38.5 nM |
| scFv L10 (scFv) scFv: QVQLQESGPGLVKTSETLSLTCAVSGYSISSGYYWGWIRQPPGKGLEWIGSISHTGNTYYNPPLKSRVTISVDTSKNQFSLKLSSVTAADTAVYYCARGGGISRPEYWGKGTLVTVSSGGGGSGGGGSGGGGSALSSELTQDPPVSVALGQTVTLTCQGDSLRTYYASWYQQKSGQAPILLLYGKHKRPSGIPDRFSGSTSGDTASLTITGAQAEDEADYYCISRSIYGNPHVLFGGGTQLTVL | 15.1 nM | 7 nM | – |
